Data taken from PMC10314698 (2023).

B1: soluble BCMA (B-cell maturation antigen) (receptor)
chain: MLQMAGQCSQNEYFDSLLHACIPCQLRCSSNTPPLTCQRYCNASVTNSVKGTNA
B2: APRIL (a proliferating ligand), IgG2a Fc conjugated binder (Fc fusion)
chain: SVLHLVPINATSKDDSDVTEVMWQPALRRGRGLQAQGYGVRIQDAGVYLLYSQVLFQDVTFTMGQVVSREGQGRQETLFRCIRSMPSHPDRAYNSCYSAGVFHLHQGDILSVIIPRARAKLNLSPHGTFLGFVKL

Key:
Assay in all cases: SPR
bb2121 (C11D5.3) = target: bb2121 (C11D5.3)
[1] = target: B1
[2] = target: B1

Row | Kd (bb2121 (C11D5.3)) [nM] | koff (bb2121 (C11D5.3)) [s⁻¹] | Kd [1] [nM] | koff [2] [s⁻¹] | Binder
1 | 0.328 | 0.00155 | – | – | B1
2 | – | – | 3.7 | 0.00393 | B2
